PMC8682488, “c-di-GMP Homeostasis Is Critical for Heterocyst Development in Anabaena sp. PCC 7120” (Frontiers in Microbiology, 2021)

Columns and labels:
[1] = biological target: T1, CdgS (Nostoc sp. PCC 7120 = FACHB-418, UniProt A0ACD7RTW6); assay: HPLC, diguanylate cyclase product formation; type: biochemical; details: DGC activity (GTP to c-di-GMP); 50 μM GTP, 2 μM protein, pH 8.0, 10 mM MgCl2, 25 °C, 30 min
T1 construct: gene all2874; N-terminal REC and C-terminal GGDEF domain, two C-terminal Strep-tags (pHTwinStrep), E. coli BL21(DE3), Strep-Tactin purified
T1 sequence (A0ACD7RTW6 1-330): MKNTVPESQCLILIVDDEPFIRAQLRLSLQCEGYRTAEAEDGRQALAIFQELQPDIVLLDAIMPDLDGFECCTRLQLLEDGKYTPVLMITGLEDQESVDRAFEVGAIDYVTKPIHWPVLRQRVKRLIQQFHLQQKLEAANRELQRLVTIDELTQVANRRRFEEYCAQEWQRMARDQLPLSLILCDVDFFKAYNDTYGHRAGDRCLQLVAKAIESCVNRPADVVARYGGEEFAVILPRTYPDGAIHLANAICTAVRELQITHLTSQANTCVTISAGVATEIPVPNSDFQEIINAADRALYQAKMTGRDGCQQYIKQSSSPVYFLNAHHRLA

[2] = substrate: Nc1nc2c(ncn2[C@@H]2O[C@H](COP(=O)(O)OP(=O)(O)OP(=O)(O)O)[C@@H](O)[C@H]2O)c(=O)[nH]1; assay: HPLC, diguanylate cyclase steady-state kinetics; type: biochemical, Nostoc sp. PCC 7120 = FACHB-418; details: DGC activity (GTP to c-di-GMP), GGDEF domain, 50 mM Tris-HCl pH 8.0, 10 mM MgCl2, 0.5 mM EDTA, 300 mM NaCl, 25 °C
Text: HPLC, diguanylate cyclase steady-state kinetics on CdgSH

[3] = substrate: Nc1nc2c(ncn2[C@@H]2O[C@@H]3CO[P@](=O)(O)O[C@H]4[C@@H](O)[C@H](n5cnc6c(=O)[nH]c(N)nc65)O[C@@H]4CO[P@](=O)(O)O[C@H]3[C@H]2O)c(=O)[nH]1; assay: HPLC, c-di-GMP phosphodiesterase steady-state kinetics; type: biochemical, Nostoc sp. PCC 7120 = FACHB-418; details: PDE activity (c-di-GMP to pGpG), EAL domain, 50 mM Tris-HCl pH 8.0, 10 mM MgCl2, 0.5 mM EDTA, 300 mM NaCl, 25 °C
Text: HPLC, c-di-GMP phosphodiesterase steady-state kinetics on CdgSH

Nc1nc2c(ncn2[C@@H]2O[C@H](COP(=O)(O)OP(=O)(O)OP(=O)(O)O)[C@@H](O)[C@H]2O)c(=O)[nH]1 [GTP]
HPLC, diguanylate cyclase product formation [1]: CdgS could convert the substrate GTP to c-di-GMP

B1: CdgSH (Nostoc sp. PCC 7120 = FACHB-418) (protein)
chain: MPGNEWEKIRHILVVQDLQGQRTIPLQEATYSIGRHTSNAIVLHSRSVSRQHAILLRVTLPETDQCSFRIIDGNFKGQGSTNGLLVNGTRCFSHNLRHGDVINFGSHQAQAKYYAISNISEKAFFASADVEDLSTFLSELSQPVNPFQTLVVDPEFEGASETALARLASFPELIPNPIIETDLEGRVTYINPAASVKFPDLRELGKQHPILKDILNIAENPKINPFVREVTVGHAVYEQSVHNLPESDLIRTYIIRDVTEQKQAEAELHQRDRLLQAVAEAANWLVVEMNYDTAIEKALAVVGEAAQADRAYLFKNHPHPITGKRAVSLQFEWYGSDLQPSIQDWQNQLYQSTELSRWYSVLSSGKSINELRRKLPVAERELLERQGIQSLLLVPLGLEDQFWGYLGLADCTQERYWSRHEESTLLTMAASISGAWQRQQVEEKIRYQALHDLLTGLPNRLLFNELLAKALANASRSQESLAVMFLDLDRFKVINDTLGHTLGDRLLQSVAQRLRDCLRSGDTVSRWGGDEFTILLPHISYIEEVTQAACRILKALEEVFHLDGHELYVSASLGIALLDHHSPDAEALIKHADAALYHAKDEGRNNYQFYTTSLSGKTPELLTLEKSLRYALEKQELKVYYQPRVNILTGQITGMEALLRWQHPEMGIVAPSIFIPIAEETGLIIPIGEWVLRTACMQNRAWQEAGLPPVQMAVNLSPKQFRQPTLLELVSAILAETGLAPEFLELEITESTAIEDIDFTRSVLENLQQMGVDIAIDDFGTGHSSLSRLQLLPLHNLKIDGSFIKALTTDSKVAHIVKAIVTLGRSLGLRLTAEGVEKQEELDFLKSINCQDVQGFLFHKPLSAEKATEILQGEKKHATL
notes: FHA-PAS-GAF-GGDEF-EAL protein, two C-terminal Strep-tags (pHTwinStrep), E. coli BL21(DE3), Strep-Tactin purified
Km [2]: 37.2 µM | kcat [2]: 0.39 s⁻¹ | Km [3]: 23.5 µM | kcat [3]: 1.26 s⁻¹

B2: CdgSH (Nostoc sp. PCC 7120 = FACHB-418; D530A/E531A) (protein)
chain: MPGNEWEKIRHILVVQDLQGQRTIPLQEATYSIGRHTSNAIVLHSRSVSRQHAILLRVTLPETDQCSFRIIDGNFKGQGSTNGLLVNGTRCFSHNLRHGDVINFGSHQAQAKYYAISNISEKAFFASADVEDLSTFLSELSQPVNPFQTLVVDPEFEGASETALARLASFPELIPNPIIETDLEGRVTYINPAASVKFPDLRELGKQHPILKDILNIAENPKINPFVREVTVGHAVYEQSVHNLPESDLIRTYIIRDVTEQKQAEAELHQRDRLLQAVAEAANWLVVEMNYDTAIEKALAVVGEAAQADRAYLFKNHPHPITGKRAVSLQFEWYGSDLQPSIQDWQNQLYQSTELSRWYSVLSSGKSINELRRKLPVAERELLERQGIQSLLLVPLGLEDQFWGYLGLADCTQERYWSRHEESTLLTMAASISGAWQRQQVEEKIRYQALHDLLTGLPNRLLFNELLAKALANASRSQESLAVMFLDLDRFKVINDTLGHTLGDRLLQSVAQRLRDCLRSGDTVSRWGGAAFTILLPHISYIEEVTQAACRILKALEEVFHLDGHELYVSASLGIALLDHHSPDAEALIKHADAALYHAKDEGRNNYQFYTTSLSGKTPELLTLEKSLRYALEKQELKVYYQPRVNILTGQITGMEALLRWQHPEMGIVAPSIFIPIAEETGLIIPIGEWVLRTACMQNRAWQEAGLPPVQMAVNLSPKQFRQPTLLELVSAILAETGLAPEFLELEITESTAIEDIDFTRSVLENLQQMGVDIAIDDFGTGHSSLSRLQLLPLHNLKIDGSFIKALTTDSKVAHIVKAIVTLGRSLGLRLTAEGVEKQEELDFLKSINCQDVQGFLFHKPLSAEKATEILQGEKKHATL
notes: as for B1
Km [3]: 31.0 µM | kcat [3]: 1.78 s⁻¹

B3: CdgSH (Nostoc sp. PCC 7120 = FACHB-418; E656A/L658A) (protein)
chain: MPGNEWEKIRHILVVQDLQGQRTIPLQEATYSIGRHTSNAIVLHSRSVSRQHAILLRVTLPETDQCSFRIIDGNFKGQGSTNGLLVNGTRCFSHNLRHGDVINFGSHQAQAKYYAISNISEKAFFASADVEDLSTFLSELSQPVNPFQTLVVDPEFEGASETALARLASFPELIPNPIIETDLEGRVTYINPAASVKFPDLRELGKQHPILKDILNIAENPKINPFVREVTVGHAVYEQSVHNLPESDLIRTYIIRDVTEQKQAEAELHQRDRLLQAVAEAANWLVVEMNYDTAIEKALAVVGEAAQADRAYLFKNHPHPITGKRAVSLQFEWYGSDLQPSIQDWQNQLYQSTELSRWYSVLSSGKSINELRRKLPVAERELLERQGIQSLLLVPLGLEDQFWGYLGLADCTQERYWSRHEESTLLTMAASISGAWQRQQVEEKIRYQALHDLLTGLPNRLLFNELLAKALANASRSQESLAVMFLDLDRFKVINDTLGHTLGDRLLQSVAQRLRDCLRSGDTVSRWGGDEFTILLPHISYIEEVTQAACRILKALEEVFHLDGHELYVSASLGIALLDHHSPDAEALIKHADAALYHAKDEGRNNYQFYTTSLSGKTPELLTLEKSLRYALEKQELKVYYQPRVNILTGQITGMAAALRWQHPEMGIVAPSIFIPIAEETGLIIPIGEWVLRTACMQNRAWQEAGLPPVQMAVNLSPKQFRQPTLLELVSAILAETGLAPEFLELEITESTAIEDIDFTRSVLENLQQMGVDIAIDDFGTGHSSLSRLQLLPLHNLKIDGSFIKALTTDSKVAHIVKAIVTLGRSLGLRLTAEGVEKQEELDFLKSINCQDVQGFLFHKPLSAEKATEILQGEKKHATL
notes: as for B1
Km [2]: 34.8 µM | kcat [2]: 0.12 s⁻¹
